Experimental data reported in the nanobody polyreactivity screen of Harvey et al. (2022).

Assay: yeast display, Sf9 membrane polyspecificity reagent, FACS + sequencing; frameworks hold sequencing errors
Method in brief: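 Galactose induction of a Saccharomyces cerevisiae BJ5465 synthetic nanobody display library ran 36–48 hours. The cells were then stained for 1 hour at 4 °C with 10% biotinylated, detergent-solubilized Sf9 membrane reagent, pulled down on streptavidin microbeads and FACS-sorted into low and high (top ~1%) gates on expression and reagent-binding fluorescence. Labels for polyreactivity follow the gate of origin.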

Sequence	polyreactivity (PSR sort gate)
QVQLVESGGGLVQAGGSLRLSCAASGFIFYTYAMGWSRLAPGKEREFVASISKSGGRTYYADSVKRRFTMSRDNAKNTVYLQMISLKPEVTAVYYCNAYRSTHFFSYRDDYWGQGTQVTVSS	high polyreactivity
QVQLVESGGGLVQAGCSLRLSCAASGSIFGWYAMGWYRPAPGKERELVAAITLIGGSTYYADSVKGRFTISRDNAKNTVYLQMNSLKPEDTAVYYCNAVWYWGDMDYWGQGTQVTVSS	low polyreactivity
QVQIVESGGGLVQAGGSLRLSCASSGRIFHRYAMGWYRQAPGKERELVAAISYSTARTYYADSVKGRFTISRDNAKNTVYLQMNSLKPEDTAVYYCAAKDERRSFGMGYWGQGTQVTVSS	high polyreactivity
QVQLVESGGGLVQAGGSLRLSCAASGRIFPSYAMGWYRQAPGKERELDATISSGGRTYYADSVKGRFTISRDNAKNTVYLQMNILKPEYTAVYYCNADRTQDRNPYTYATFDYWGQGTQVTVSS	low polyreactivity
QVQLVESGGGLVQAGGSLRLSCAASGLTFRVNDMGWYRQAPGKERELVATISSGGSTYYADSVKGRFTISRDNAKNTVYLQMNSLKPEDTAVYYCATNSEGQESNSYYVWMGYWGQGTHVTVSS	low polyreactivity
QVQLVESGGGLVQAGGSLRLSCAASGFTFGAYAMGWYRQAPGKERELVAAITWSGSSTYYADSVKGRFTISRDNAKNTVYLQMNSLKPEDTAVYYCNVQDKGYVSYYGGDSWGQGTQVTVSS	high polyreactivity
QVQLVESGGGLVQAAGSLRLSCAASGFTIAHYAMGRYSHAPGKERELVAGISRSGGSTYYADSVKGRFTISRDNAKNTVYLQMNILKPEDTAVYYCATVTYLKRVRYQSGYDSWGQGTQVTVSS	low polyreactivity
QVQLVESGGGLVQAGGSLRLSCAASGSIFWFYAMGWYRQAPGKERELVAAISYSGGITYYADSVKGRFTISRDNAKNTVYLQMNSLKPEDTAVYYCNADGPSTPWVDYGYWGQGTQVTVSS	low polyreactivity
QVQLVESGGGLVQAGGSLRLSCAASGSTFSSNPMGWYRQAPGKERELVAAISVNGGSTNYADSVKGRFTISRDNAKNTVYLQMNSLKPVDTAVYYCAAEPAKVAFYRGDYWGQGTQVTVSS	low polyreactivity
QVQLVETGGGLVQAGGSLRLSCAASGRTFAYYVMGWYRQAPGKERELVAAISSDGSTYYADSVKGRFTISRDNAKNTVNLQMNSLKPEDTAVYYCKVDVLLVHDYVFYSWMDYWGQGTQVTVSS	high polyreactivity
QVHLVESGGGLVQAGGSLRLSCAASGLIFARNAMGWYSQAPGKEREMVAAISRSGSTNYADSVKGRFTISRDNAKNTVYLQMNSLKPEDTAVYYCAADHARYLGFPRVDYWGQGTQVTVSS	low polyreactivity
QVQLVESGGGLVQAGGSLRLSCAASGRTFVYNAMGWYRQAPGKERELVAAITRSGGRTYYADSVKGRFTISRDNAKNTVYLQMNSLKPEDTAVYYCSARISRWYAYGTDIKEGDYWGQGTQVTVSS	low polyreactivity
QVQLVESGGGLVQAGGSLRLSCAASGSIFDVNTMGWYRQAPGKERELVAAISRGGSTNYADSVKGRFTISRDNAKNTVYLQMNSLKPEDTAVYYCNKRYQNQYDYWGQGTQVTVSS	low polyreactivity
QVQLVESGGGLVQAGGSLRLSCAASGYTFPLYAMGWYRQAPGKERELVADINIGGASTYYADSVKGRFTISRDNAKNTVYLQKNSLKPEDTAVYYCAKEYYDGYFPTFDSDYWGQGTQVTVSS	low polyreactivity
QVQLVESGGGLVQAGGSLRLSCAASGFTFWRNTMGCSRQAPGKETEFVAAIDWSGGSTTYAVSVKGRFTFSRDNAKNSVYLQMNSLKPEDTAVYYCAAAERRRHYWWGQESDYWGQGTQVTVSS	low polyreactivity
QVQLVESGGGLVQAGGSLRLSCAASGRIFYLNAMGWYRQAPGKERELVAGITNSTTGTYYADSVKGRFTISRDNAKNTVYLQMNCLKPEDTAVYYCITDVAYEEPVETYDYWGQGTQVTVSS	low polyreactivity
QVQLVESGGGLVQAGGSLRLSCAASGSTFRKYAMGWYRQAPGKEREFVAAITWSTGTTYYADSVKGRFTISRDNAKNNVYLQMNSLKPEDTAVYYSAADSQPPHELDESIEHESWGQGTQVTVSS	low polyreactivity
QVQLVESGGGLVQAGGSLRLSCAASGITFVTYAMGWYRQAPGKERELVAAITIGGRTNYADSVKGRFTISRDNAKNTVYLQMNSLKPEDTAVYYCNAAPVYDVTRLFYDDMGYWGQGTQVTVSS	low polyreactivity
QDQLVESGGGLVQAGGSLRLSCAASGSTFQENAMGWYRQAPGKEREFVAAISGSGGSTYYADSVKGRFTISRDNAKNSVYLQMNSLKPEDTAVYYCAAYVTGYVNTVGSGWLVWGVDFWGQGTQVTVSS	low polyreactivity
QVQLEETGGGLVQAGGSLRLSCAASGRIFWWYAMGWYRQAPGKERELVAVIDDSGGITYYADSVKGRFTISRDNAKNTVYLQMNSLKPEDTAVYYCARNVNAQKVLAGFDYWGQGTQVTVSS	low polyreactivity
QVQRVESGGGLVQAGGSLRLSCAASGITFKYYGMGWYRRAPGKERELVAAITRSGGSTSYADSVKGRFTISRDNAKNTVYLQMHSLKPEDTAVYYCAAERYVLTWLGIERYYWGQGTQVTVSS	high polyreactivity
QVQLVESGGGLVQAGGSLRLSCAASGLIFKGYDMGWYRQAPGKERELVAAISSGSTNYADSVKGRFTISRDNAKNTGYLQMNSLKPEDTAVYYCNADLGRATFYQRVFIERGGYWGQGTQVTVSS	low polyreactivity

Sequence	polyreactivity (PSR sort gate)
QVQLVESGGGLAQAGGSLRLSCAASGSTFYSYAMGWYRQAPGKERELVAGITWNDGSTYYADSVKGRFTISRDNAKNTVYLQMNSLKPEDTAVYYCNTDASPYLFDYWGHGTQVTVSS	low polyreactivity
QVQLVESGGGLVQAGGSLRLSCAASGSTFRVYAMGWYRQAPGKERELVAGISWRGGSTSYADSVKGRFTISRDNAKNTVYLQMNSLKPEDTAVYYCAVQRSYVGPRQYNYWGQGTQVTVSS	high polyreactivity
QVQLVESGGGLVQAGGSLRLSCAASGSIFRVYTMGWYRQAPGKERELVAAISRSGGRTYYADSVKGRFTISRDNAKNTVYLQMNSLKPEDTAVYYCNAQYGGQYGYGYWGQGTQVTVSS	high polyreactivity
QVQLVESGGGLVQAGGSLRLSCAASGRTFRKYAMGWYRQAPGKERELVAAINRGGTTKYADSVKGRFTISRDNAKNTVYLEMNSLKPEDTAVYYCAVDRQRAGYPKQYDSWGQGTQVTVSS	low polyreactivity
QVQLVESGGGLVQAGGSLRLSCAASGSTFDVYVMGWYRQAPGKERELVAAISSGDDTNYADSVKGRFTISRDNAKNTVYLQMNSLKPEDTAVYYCAAAYYYYVSGWFDYWGQGTQVTVSS	low polyreactivity
QVQLVESGGGLLQAGGSLRLSCAASGSTFHRNAMGWYRQAPGKERELVAAISWRAGSTYYADSVKGRFTISRDNAKNTVYLQMNSLKPEDTAVYYCNAVERYWDYGYWGQGTQVTVSS	low polyreactivity
QVQLVESGGGLVQAGGSLRLSCAASGRIFRKYAMGWYRQAPGKERELVAAISGSGGSTTYADSVKGRFTISRDNAKNTVYLQMNSLKPEDTAVYYCAARGYSLYGYPYYYWGQGTQVSVSS	high polyreactivity
QVQLVESGGGLVQAGGSLRLSCPASGSTFRYYAMGWYRPAPGKERELVAGISSSGGSTYYADSVKGRFTISRDNAKNTVYLQMNSLKPEDTAVYYCNAARGTSRSWAVFADYDYWGQGSQVTVSS	high polyreactivity
QVQLVESGGGLVQAGGSLRLSCAASGRTFYVYAMGWYRQAPGKERELVAAISWGGGSTYYADSVKGRFTISRDNAKNTVYLQMNSLKPEDTAVYYFAAESWTSGTNVPVWYYGYSWGQGTQVTVSS	low polyreactivity
QVQIVESGGGLVQAGGSLRLSCAASGSTFTFYAMGSYRQAPGKERELVASITQSTGSTHYADSVKGRFTISRDNEKNTVFLQMNSLNPEDTAVYYCKAQKIVYYLVTLFPYYYWGQGSQVTVSS	low polyreactivity
QVQVVESGGGLVQAGGSLLLSCAASGSTFEYNAMGWYRQAPGKERELVASSTNYADSVKGRFTISRDNAKNTVYLQMNSLKPEDTAVYYCARELGVNRKHDYWGQGTQVTVSS	low polyreactivity
QVQHVESGGGLVQAGGSLRLSCAASGITFRVNAMGWYRQAPGKERELVASISRSGGSTYYADSVKGRFTISRDNAKNTVYLQMNSLKPEVTAVYYCAAAQKVLFYGRWFDYWGQCTQVTVSS	low polyreactivity
QVQLVESGGGVVQAGGSLRLSCAASGFTFAQYAMGWYRQAPGKERELVATITRGGITYYADSVKGRFTISRDNAKNTVYLQMNSLKPEDTAVYYCAARVVPPYSRRDDYWGQGTQVTVSS	high polyreactivity
QVQLVESGGGLVQAGGSLRLSCAASGRTFLTNAMGWYRPAPGKERELVAAISSGASTNYADSVKGRFTISRDNAKNTVYLQMNSLKPEDTAVYYCAAQLTDYQSKTLSYDYWGQGTQVTVSS	low polyreactivity
QVQLVESGGGLLQAGGSLRLSCAASGRTFNYYAMGWYRQAPGKERELVAAISRSGGSTYYADSVKGRFTISRDNAKNTVFLQMNSLKPEDTAVYYCKSDRGSIYGWGQGTQVTVSS	high polyreactivity
QVQLVESGGGLVQAGGSLPLSCAASGNIFVTYDMGWYRQAPGKERELVASISWNGGSTNYADSVRGLFTISRDNAKNTVYLQMNSLKPEDTAVYYCAAEYWTSYADYRYDYWGQGTQVTVSS	low polyreactivity
QVQLVESGGGLVQAGGSLRLSCAASGITFVQNVMGWYRQAPGKEREFVAGINYSGGSTYYADSVKGRFTISRDNAKNTVYLQMNSLKPEDTAVYYCAADYDRYTYAFVYRYRRMYYWGQGTQVTVSS	low polyreactivity
QVQLVESGGGLVQAGGSLRLSCAASGRIFEHYAMGWYRQAPGKERELVATISSGGSTYYADSVKGRFTISRDNAKNTVYLQMNSLKPEDTAVYYCAAERFWPYKSYYWGQGTQVTVSS	low polyreactivity
QVHLVESGGGLVQAGGSLRLSCAASGSTIDINAMGWYRQAPGKERELVAAISSGGITNYADSVKGRFTISRDNAKNTVYLQMNSLKPEDSAVYYCATQTYTFRWFGSPGWFDYWGQGTQVTVSS	low polyreactivity
QVQLVESGGGLVQAGGSLRLICAASGRTFYRNDMGWSRQAPGKERELVAAISGSGGTTYYADSVKGRFTISRYNAKNTVYLQMNSLNPEDTAVDYCAVDGNFFGEVRPYDYWGQGTQVTVSS	low polyreactivity
QVQLVESGGGLVQAGGSLRLSCAASGRTFLVYSMGWYIQAPGKERELVAAISFSDGITYYADSVKGRFTISRDNAKNTVYLQMNRLKPEDTAVYYCATEILDYYYGSEYDYWGQGTQVTVTS	high polyreactivity
